Results from patent publication US20240343803A1 (SHANDONG SIMCERE BIOPHARMACEUTICAL, published 2024).
Blank lines part the entries; values can stand above or below the binder they belong to.

Experiments:
[1] = molecular target: T1, human PVRIG-mFc protein (Acro, PVG-H5253) (human, UniProt Q6DKI7 41-171, limits assumed); assay: competition FACS; blocked: human PVRIG-mFc binding to CHO-K1-CD112 cells
T1 construct: bought reagent; also called PVRIG-ECD-mFc
T1 sequence (looked up): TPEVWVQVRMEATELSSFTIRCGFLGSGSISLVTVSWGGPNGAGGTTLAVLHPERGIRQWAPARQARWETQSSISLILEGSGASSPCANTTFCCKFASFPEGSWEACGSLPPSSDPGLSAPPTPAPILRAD
Method in brief: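 Antibody dilutions premixed with human PVRIG-mFc (working solution 1 μg/mL, four-fold concentration) for 30 min at 4° C, then incubated with CHO-K1-CD112 cells 30 min at 4° C. Bound PVRIG-mFc detected by PE anti-mouse IgG Fc flow cytometry; IC50 and AUC from four-parameter fit of MFI versus antibody concentration.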

[2] = molecular target: T2, human PVRIG-his (AcroBiosystems, Cat NO. PVG-H52H4) (human, UniProt Q6DKI7 41-171, limits assumed); assay: competition ELISA on coated human PVRIG-his; blocked ligand human PVRL2-mFc
T2 construct: treated as the same protein; also called human PVRIG-His protein; Human PVRIG-His, Acro C227P1-9ARF1-T4
T2 sequence (looked up): T1 sequence (looked up)
Method in brief: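 Wells were coated with 0.5 μg/mL human PVRIG-his. Bound ligand was read by HRP/TMB absorbance, and IC50 came from a four-parameter logistic fit of OD against antibody concentration.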

[3] = molecular target: T3, cynomolgus monkey PVRIG on FlpinCHO-cyno PVRIG cells (cynomolgus monkey, UniProt A0A2K5WVV8 41-322); assay: FACS, FlpinCHO-cyno PVRIG cells
T3 construct: whole, on cells; also called FlpinCHO-cynomolgus monkey PVRIG
T3 sequence: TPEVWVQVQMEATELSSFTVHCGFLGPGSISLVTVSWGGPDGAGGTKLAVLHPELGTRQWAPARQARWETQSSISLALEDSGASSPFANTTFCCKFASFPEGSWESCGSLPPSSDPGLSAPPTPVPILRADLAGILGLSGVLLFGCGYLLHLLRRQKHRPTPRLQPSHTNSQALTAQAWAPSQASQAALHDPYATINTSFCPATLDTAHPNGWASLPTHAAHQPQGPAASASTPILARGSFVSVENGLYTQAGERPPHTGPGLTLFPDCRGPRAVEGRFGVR
Description: After discarding the cell culture medium, the cells were rinsed with PBS and digested for 8-10 minutes by adding 1 mL Versene (Gibico, 15040-066). The Ham's F12 (Gibico, 21127-022) complete medium containing 10% FBS was then added to terminate the digestion and acquire cell suspension. After counting with a cell counter (Beckman Coulter, Vi-CELL), an appropriate amount of cell suspension was centrifuged at 350×g to remove the supernatant, washed twice with PBS, stained with Zombie violet (Biolegend, 423114) and incubated at room temperature for 20 minutes. After incubation, the cells were added with staining buffer (2% FBS+PBS) to stop staining, centrifuged at 350×g to remove the supernatant, washed twice and resuspended with staining buffer to a density of 2×10⁶ cells/mL. The cells were plated into a 96-well plate (50 μL of cell suspension per well) for further use. The antibodies were diluted from the highest concentration of 46 nM (two-fold concentration) with staining buffer by 3.3-fold serial dilution. The diluted antibodies were added to the well containing 50 μL of cell suspension. The plate was placed on a microplate shaker at 400 rpm for 1 minute to fully mix the antibodies and cells, and then incubated at 4° C. for 30 minutes. After the incubation, the cells were washed twice with staining buffer (200 μL per well) and centrifuged at 350×g for 5 minutes to discard the supernatant. The PE goat anti-human IgG Fc antibody (ebioscience, 12-4998-82) was diluted 250 times with staining buffer, added into the washed wells (100 μL per well), mixed well, and stained at 4° C. for 30 minutes. After staining, the cells were washed twice with staining buffer, finally resuspended with 200 μL staining buffer and analyzed by flow cytometry (BD, Canto II). […] An antibody binding curve was drawn with concentration of antibodies as the abscissa and the corresponding Mean Fluorescence Intensity (MFI) as the ordinate. The AUC value of the curve was calculated by using a Four Parameter Logistic Fit (GraphPadPrism9). […]

- IC50 (read off the curve) [1]: ~1 nM
- IC50 (read off the curve) [2]: ~800 pM
- EC50 (read off the curve) [3]: ~1 nM
B1: SRF813-hIgG1 (antibody, V domains shown)
VH: QVQLVQSGAEVKKPGSSVKVSCKASGGTFSSAAISWVRQAPGQGLEWMGNIIPIVGIANYAQKFQGRVTITADESTSTAYMELSSLRSEDTAVYYCARDTGRGYTRHFWFDPWGQGTLVTVSS
VL: DIQMTQSPSSLSASVGDRVTITCRASQSISSYLNWYQQKPGKAPKLLIYAASSLQSGVPSRFSGSGSGTDFTLTISSLQPEDFATYYCQQSDILYTFGGGTKVEIK
notes: human IgG1 format by its name

- IC50 (read off the curve) [1]: ~1 nM
- IC50 (read off the curve) [2]: ~900 pM
- EC50 (read off the curve) [3]: ~0.5 nM
B2: PVRIG-A105 (VHH)
VHH: EVQLVESGGGLVQAGGSLRLSCAASGRTFDRHTMTWFRQAPGKEREFVATASRIPGDTYYSHSVKGRFTISRDNAKNTVYLQLNNLKPEDTAVYYCAATSAYCSEVDCYEKGSWYDNWGQGIQVTVSS
notes: tested as VHH-hinge-CH2-CH3 (human IgG1-Fc); not shown: human IgG1 hinge-CH2-CH3
